# Measured values: publication PMC11765882, “A High-Resolution Crystallographic Study of Cytochrome c6: Structural Basis for Electron Transfer in Cyanobacterial Photosynthesis” (International Journal of Molecular Sciences, 2025)
# Biological target: the molecule itself
# Experiment: native gel or EMSA; blue native PAGE (4-13%) of the purified protein; dimer and monomer
row,Protein,stoichiometry N
1,"Cytochrome c6 from Synechococcus elongatus sp. PCC 7942 (natural protein, Synechococcus elongatus PCC 7942, heme covalently linked to two cysteine residues via thioether bonds (CXXCH motif); iron axially coordinated by methionine and histidine, cloned into pET22b with an N-terminal pelB signal peptide; Used reduced (3 mM beta-mercaptoethanol) and oxidised (40-fold molar excess of potassium ferricyanide); The printed residue numbers (Asp2, His5, Ala16) and the MALDI-TOF mass (9714.504 with heme) fit the mature protein without the native signal peptide) ADLAHGGQVFSANCAACHLGGRNVVNPAKTLQKADLDQYGMASIEAITTQVTNGKGAMPAFGSKLSADDIADVASYVLDQSEKGWQG",2
2,"Cytochrome c6 from Synechocystis sp. PCC 6803 (natural protein, heme covalently linked to two cysteine residues via thioether bonds (CXXCH motif); iron axially coordinated by methionine and histidine, Cytochrome c6, Synechocystis sp; cloned into pET22b with an N-terminal pelB signal peptide; Crystallised only in the reduced form (3 mM beta-mercaptoethanol); The printed residue numbers and the MALDI-TOF mass (9449.297 with heme) fit the mature protein without the native signal peptide) ADLAHGKAIFAGNCAACHNGGLNAINPSKTLKMADLEANGKNSVAAIVAQITNGNGAMPGFKGRISDSDMEDVAAYVLDQAEKGW",2
